According to paper PMC9170159 (Proceedings of the National Academy of Sciences of the …, 2022):
Where “and” joins values, the source holds several entries; their conditions need not be identical. Equal values may be shown once.

Tests used:
[1] = biological target: T1, SARS-CoV-2 (Wuhan-Hu-1) spike receptor-binding domain, His-tagged (SARS-CoV-2, UniProt P0DTC2 319-541); test: BLI; settings: both partners purified
[2] = biological target: T1, SARS-CoV-2 (Wuhan-Hu-1) spike …; test: BLI; settings: both partners purified; remark: listed apart in the source

B1: NCI-CoV-7A3 VHH-hFc fusion protein (Fc fusion)
VHH: QVQLVESGGGSVQPGGSLRLSCVVSGYTSSSRYMGWFRQVPGKGLEWVSGIKRDGTNTYYADSVKGRFTISQDNAKNTVYLQMNSLKPEDTAMYYCAAGSWYNQWGYSMDYWGKGTQVTVSS
notes: also called 7A3 VHH-Fc; source: Expi293 cells, transfected, purified (protein A column)
In the case of B1, the Kd [1] is reported as 0.19 nM and 0.2 nM and the Kd [2] is reported as 0.2 nM.

B2: 8A4 VHH-hFc fusion protein (Fc fusion)
VHH: EVQLVESGGGLVQPGESLRLSCEASGFTFSSVYMSWVRQAPGKGLEWISTIHPAGGSTYYADSMKDRFTISRDNAKNTLYLQMNSLKSEDTALYYCIIEALSGYRGPGTQVTVSS
notes: also called 8A4 VHH-Fc; source: Expi293 cells, transfected, purified (protein A column)
With B2 the Kd [1] was 0.14 nM and 0.18 nM and the Kd [2] was 0.16 nM.

B3: NCI-CoV-8A2 VHH-hFc fusion protein (Fc fusion)
VHH: AVQLVDSGGGSVQAGGSLRLSCAASGYTYSICTMGWYRQAPGEGLEWVSGINADGSNTHYTDSVKGRFTISRDNAKKTLYLQMNSLKPEDTAIYYCAAHGTYDKYAPCGGFAGTYTYWGQGTQVTVSS
notes: also called 8A2 VHH-Fc; source: Expi293 cells, transfected, purified (protein A column)
With B3 the Kd [1] was 0.26 nM and 0.13 nM and the Kd [2] was 0.26 nM.

B4: 1H6 VHH-hFc fusion protein (Fc fusion)
VHH: AVQLVDSGGGSVQAGGSLNLSCVASGTTLRNGCMAWFRQVPGKEREVVAIIIRATSYTDYADSVKGRFTISQDNAKNTVYLQMKSLTPEDTATYYCAATLYRVNCAKREFDKWGQGTQVTVSS
notes: also called 1H6 VHH-Fc; source: Expi293 cells, transfected, purified (protein A column)
B4 was tested, and the Kd [1] was 37 nM and 42 nM.
